Test results from patent publication US20120282280A1 (Hoffmann-La Roche, published 2012).

B1: murine <Dig> IgG1 kappa from mouse hybridoma clone 19-11 (antibody, V domains shown)
VH: EVQLVESGGGLVKPGGSLKLSCAVSGFTFSDYAMSWIRQTPENRLEWVASINIGATYAYYPDSVKGRFTISRDNAKNTLFLQMSSLGSEDTAMYYCARPGSPYEYDKAYYSMAYWGPGTSVTVSS
VL: DVQMTQSTSSLSASLGDRVTISCRASQDIKNYLNWYQQKPGGTVKLLIYYSSTLLSGVPSRFSGRGSGTDFSLTITNLEREDIATYFCQQSITLPPTFGGGTKLEIK
notes: also called murine DIG-IgG 19-11; <DIG>M-19-11
B2: humanized <Dig> IgG (antibody, V domains shown)
VH: QVQLVESGGGLVKPGGSLRLSCAASGFTFSDYAMSWIRQAPGKGLEWVSSINIGATYIYYADSVKGRFTISRDNAKNSLYLQMNSLRAEDTAVYYCARPGSPYEYDKAYYSMAYWGQGTTVTVSS
VL: DIQMTQSPSSLSASVGDRVTITCRASQDIKNYLNWYQQKPGKAPKLLIYYSSTLLSGVPSRFSGSGSGTDFTLTISSLQPEDFATYYCQQSITLPPTFGGGTKVEIKR
notes: also called <DIG>hu2; <DIG>-hu2

How the values were obtained:
[1] = target: DIG-Myoglobin (mono-digoxygenated protein); assay: SPR (Biacore), DIG-Myoglobin as analyte, replicate
DIG-Myoglobin (mono-digoxygenated protein), sequence (P68082 2-154): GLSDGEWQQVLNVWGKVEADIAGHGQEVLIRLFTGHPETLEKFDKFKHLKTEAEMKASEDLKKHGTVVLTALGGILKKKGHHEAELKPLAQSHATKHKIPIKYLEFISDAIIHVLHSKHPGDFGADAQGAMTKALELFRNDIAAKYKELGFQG

[2] = target: DIG-BP4 (digoxygenated protein); assay: SPR (Biacore), antibody captured by anti-mouse IgG, DIG-BP4 injected 0.3125-10 nM, 25 C
[3] = target: DIG-Myoglobin (mono-digoxygenated protein); assay: SPR (Biacore), DIG-Myoglobin as analyte
[4] = target: DIG-BP4 (digoxygenated protein); assay: SPR (Biacore), legend of FIG. 10d (Table 3 and the text print 33 pM)
[5] = target: DIG-Myoglobin (mono-digoxygenated protein); assay: SPR (Biacore), DIG-Myoglobin as analyte; remark: listed apart in the source
[6] = target: DIG-BP4 (digoxygenated protein); assay: SPR (Biacore), antibody captured by anti-human IgG, DIG-BP4 injected 0.3125-10 nM, 25 C
[7] = target: DIG-Myoglobin (mono-digoxygenated protein); assay: SPR (Biacore), DIG-Myoglobin as analyte; lower end of the range, tied to <DIG>hu2 by Table 3a

Binder	Kd [1] [nM]	koff [1] [s⁻¹]	kon [1] [M⁻¹ s⁻¹]	Kd [2] [nM]	fold better affinity than <DIG>-hu2 and the disulfide-stabilized <DIG> scFv [3] [fold]	Kd [4] [nM]	Kd [5] [nM]	koff [5] [s⁻¹]	kon [5] [M⁻¹ s⁻¹]	Kd [6] [nM]	Kd [7] [nM]
B1	0.295	0.000675	2.28e+06	0.033	~100	33	0.386	0.000676	1.75e+06		
B2	11.8	0.00881	749000				15.8	0.00982	620000	< 0.076	15 to 25
